T1: human ACVR2B.Fc fusion protein (human, UniProt Q13705)
T1 sequence: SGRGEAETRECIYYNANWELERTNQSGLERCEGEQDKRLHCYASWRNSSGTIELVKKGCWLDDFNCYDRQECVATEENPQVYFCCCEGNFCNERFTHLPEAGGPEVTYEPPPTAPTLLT


Target: T1, human ACVR2B.Fc fusion protein
Test: SPR

Row | Binder | binding result
1 | Activin A.ΔD406 (ligand) GLECDGKVNICCKKQFFVSFKDIGWNDWIIAPSGYHANYCEGECPSHIAGTSGSSLSFHSTVINHYRMRGHSPFANLKSCCVPTKLRPMSMLYYDGQNIIKKDIQNMIVEECGCS | binds
2 | Activin A (wild type, mature dimer) (ligand) GLECDGKVNICCKKQFFVSFKDIGWNDWIIAPSGYHANYCEGECPSHIAGTSGSSLSFHSTVINHYRMRGHSPFANLKSCCVPTKLRPMSMLYYDDGQNIIKKDIQNMIVEECGCS | binds
